According to publication PMC8092223:

What was measured:
[1] = biological target: His8-tagged PII protein, PII(WT) (Synechocystis sp. PCC 6803) (UniProt Q55247); assay: BLI; Octet K2; His8-tagged PII variant loaded (10 ug/ml) on Ni-NTA sensor tips, free sites blocked with 72 ug/ml PII(ΔT); analyte GST-PirA 125 to 12,000 nM (or tag-free PirA or GST alone); with ADP (0.1 to 2 mM; 2 mM for variants and controls); 30°C; 50 mM Tris-HCl pH 7.4, 150 mM KCl, 2 mM MgCl2, 0.02% lauryldimethylamine oxide, 0.2 mg/ml BSA; KD from concentration versus maximum response
[2] = biological target: PII(S49E), phosphomimetic variant, His8-tagged (Synechocystis sp. PCC 6803) (UniProt Q55247); assay: as above
[3] = biological target: His8-tagged PII protein, PII(WT) (Synechocystis sp. PCC 6803) (UniProt Q55247)

Q: What does the source list for “GST-tagged PirA (Ssr0692, PII-interacting regulator of arginine synthesis) (natural protein)”?
A: Kd [1]: 2900 nM; Kd [2]: 2500 nM; NAGK activity (AGPR-coupled assay; 6 ug NAGK, 2.4 ug PII, 0.1 mM arginine, 1 mM ATP, 1 mM ADP) against PirA from 0 to 30 ug [3]: 50%
